Entries after “also recorded” stand apart in the source; their conditions may differ.
B1: Car10: carbonic anhydrase 10, rodent ortholog, overexpressed (V5-tagged) protein (protein)
chain: MEIVWEVLFLLQANFIVCISAQQNSPKIHEGWWAYKEVVQGSFVPVPSFWGLVNSAWNLCSVGKRQSPVNIETSHMIFDPFLTPLRINTGGRKVSGTMYNTGRHVSLRLDKEHLVNISGGPMTYSHRLEEIRLHFGSEDSQGSEHLLNGQAFSGEVQLIHYNHELYTNVTEAAKSPNGLVVVSIFIKVSDSSNPFLNRMLNRDTITRITYKNDAYLLQGLNIEELYPETSSFITYDGSMTIPPCYETASWIIMNKPVYITRMQMHSLRLLSQNQPSQIFLSMSDNFRPVQPLNNRCIRTNINFSLQGKDCPNNRAQKLQYRVNEWLLK
modifications: left off: small tags and cut ends
notes: carbonic anhydrase 10, rodent ortholog, overexpressed (V5-tagged) protein
B2: CA10: human carbonic anhydrase 10, overexpressed (V5-tagged) protein; SEQ ID NO: 9 (protein)
chain: MEIVWEVLFLLQANFIVCISAQQNSPKIHEGWWAYKEVVQGSFVPVPSFWGLVNSAWNLCSVGKRQSPVNIETSHMIFDPFLTPLRINTGGRKVSGTMYNTGRHVSLRLDKEHLVNISGGPMTYSHRLEEIRLHFGSEDSQGSEHLLNGQAFSGEVQLIHYNHELYTNVTEAAKSPNGLVVVSIFIKVSDSSNPFLNRMLNRDTITRITYKNDAYLLQGLNIEELYPETSSFITYDGSMTIPPCYETASWIIMNKPVYITRMQMHSLRLLSQNQPSQIFLSMSDNFRPVQPLNNRCIRTNINFSLQGKDCPNNRAQKLQYRVNEWLLK
modifications: V5 tag

Columns and labels:
[1] = system: ITPR1 phosphorylation (pITPR1) at Ser-1755; experiment: forskolin-induced ITPR1 phosphorylation (pITPR1) in transfected HEK293 cells; assay type: cell-based, human; settings: 1 μM forskolin; for forskolin-induced ITPR1 phosphorylation (pITPR1), western blot: overexpression vs empty vector; for pITPR1 by IHC in response to forskolin: vs empty vector (AAV-null)
Protocol: Cell culture and transfections: Human neuronal-derived (e.g., NBL), human non-neuronal derived (e.g., HEK293) cells, or dispersed rodent primary DRG cells can be used. HEK293 cells (cat #CRL-1573 ATCC Manassas, VA) were cultured in Dulbecco's modified Eagle's medium (DMEM-Glutamax cat #0566; Invitrogen) supplemented with 10% fetal bovine serum, FBS (cat #16140 ThermoFisher scientific, Waltham, MA) and 1% penicillin/streptomycin (cat #15140 ThermoFisher scientific, Waltham, MA). Cells were seeded in six-well plates at density of 1.0×10^5 cells per well. The following day, cells were transfected with plasmids via lipofectamine LTX reagent and plus (cat #15338 ThermoFisher scientific, Waltham, MA). For each transfection 2 μg of AAV2-ITR (control), AAV2-V5-Car10, or AAV2-V5-CA10 vectors was used. In various embodiments of the disclosure described herein, 2 μg of expression vectors (including positive and negative controls) in instances when AAV2 is not the viral vector employed.
Immunohistochemistry (IHC): HEK293 cells were seeded in poly-L-Lysine/laminin coated glass coverslips at a density of per coverslip, 24 hrs later cells were transfected with Car10, CA10 or empty vector respectively. Cells were cultured at 37° C. for an additional 96 hrs, then treated with forskolin 1 μM (F6886 Sigma, St. Louis, MO) for 5 min, then fixed with 4% paraformaldehyde for 15 min, permeabilized with 0.1% Triton X-100 for 10 min, and blocked with 1% bovine serum albumin (BSA, sigma) for 1 h. Cells were then incubated with anti-pITPR1 (cat #8548s cell signaling technology), anti-Car10 (cat #SAB1102286 Sigma, St Louis, MO), anti-V5 (cat #R960 Invitrogen), anti-ITPR1 (cat #8568 Cell Signaling technology) antibody overnight at 4° C. The next day, cells were incubated with the corresponding second antibody (1:200) for 1 h at room temperature in the dark. Coverslips were dried and affixed to slides using a fluorescent mounting medium containing Dapi (cat #P36931 Life Technologies). It will be understood that IHC methods also are contemplated using anti-Car8, anti-CA8, anti-CA8 fragment (CA8-204), anti-CA10, anti-Car11 and anti-CA11 antibodies.
HEK293 cells were transfected using AAV8-V5 vectors overexpressing Car10 and CA10, an empty vector and vehicle served as controls. A V5 sequence was inserted at the Car10 or CA10 C-terminal region in order to differentiate between exogenous and endogenous CA10/Car10 expression. […] Using the V5 tag, protein overexpression was detected following V5-Car10 and V5-CA10 vector transfection (FIG. 1B).
In order to examine the role of CA10 in the regulation of ITPR1 phosphorylation (pITPR1) that enhances the response of ITPR1 to the IP3 ligand, HEK293 cells were transfected with AAV8-V5-CA10 vectors. […]

[2] = system: neuropathic (Chung) mouse pain model; experiment: neuropathic (Chung, spinal nerve ligation) mouse pain model, mechanical withdrawal threshold (von Frey); assay type: in vivo, C57BL/6J mice; settings: sciatic nerve injection; spinal nerve ligation on Day 19
Protocol: Sciatic nerve injection of expression vectors (adeno-associated AAV8-V5-Car10 and AAV8-V5-CA10 vectors): Mice were anesthetized by intraperitoneal injection of Ketamine, xylazine and acepromazine cocktail (VEDCO, Saint Joseph, MO). Following sciatic nerve exposure, about 1.5 μl viral particles of AAV8-null (1.36E^13 viral particles, SL100832 SignaGen Laboratories Rockville, MD), AAV8-V5-Car10 and AAV8-V5-CA10 (1.06E^14 viral particles and 1.66E^14 viral particles, respectively) were injected into the sciatic nerve using a 35-gauge Nanofil needle (World Precision Instruments, Sarasota, FL). The sciatic injection site was approximately 45 mm from the tip of the third toe.
Neuropathic pain model: For the induction of peripheral neuropathy, mice were first anesthetized by an intraperitoneal injection of ketamine, xylazine hydrochloride and acepromazine (VEDCO, Saint Joseph, MO). […]
Behavioral tests: Thermal and mechanical sensitivity was measured by Hargreaves test and von Frey filament threshold calculations respectively. […] The mouse hind paw was pressed with one of a series of von Frey filaments with logarithmically incrementing stiffness (Stoelting Co, Wood Dale, IL) presented perpendicular to the plantar surface of each hind paw for 1-2 seconds, the 50% threshold was determined using the Up- and Down method.

| Molecule | forskolin-induced ITPR1 phosphorylation (pITPR1), western blot [1] | pITPR1 by IHC in response to forskolin [1] | mechanical withdrawal threshold [2] |
| --- | --- | --- | --- |
| B1 | reduced forskolin-induced ITPR1 phosphorylation; also recorded: inhibited forskolin-induced pITPR1 | no increase in pITPR1 | prevents mechanical hyperalgesia |
| B2 | reduced forskolin-induced ITPR1 phosphorylation; also recorded: inhibited forskolin-induced pITPR1 | no increase in pITPR1 | prevents mechanical hyperalgesia |

Reference: patent publication US11911450B2, “Method for managing pain” (UNIVERSITY OF MIAMI, priority 2017, dated 2024)
